Results on 6 molecules are retold here after patent US20190127444A1 (NEW YORK UNIVERSITY, published 2019).

To fix the notation:
T1: LukAB toxoid variant (LukA E323A), recombinant polyhistidine-tagged (S. aureus, UniProt Q2FFA2 28-351; P21224 30-338)
T1 sequence 1: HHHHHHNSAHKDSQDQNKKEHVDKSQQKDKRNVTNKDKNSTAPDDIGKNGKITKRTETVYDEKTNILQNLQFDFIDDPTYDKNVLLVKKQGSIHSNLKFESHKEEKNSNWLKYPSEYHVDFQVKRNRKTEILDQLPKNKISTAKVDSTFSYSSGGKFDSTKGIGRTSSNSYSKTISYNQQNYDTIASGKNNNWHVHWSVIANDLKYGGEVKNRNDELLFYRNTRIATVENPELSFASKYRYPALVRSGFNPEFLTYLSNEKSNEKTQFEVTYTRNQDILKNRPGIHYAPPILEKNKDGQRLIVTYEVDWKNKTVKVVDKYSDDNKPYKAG
T1 sequence 2: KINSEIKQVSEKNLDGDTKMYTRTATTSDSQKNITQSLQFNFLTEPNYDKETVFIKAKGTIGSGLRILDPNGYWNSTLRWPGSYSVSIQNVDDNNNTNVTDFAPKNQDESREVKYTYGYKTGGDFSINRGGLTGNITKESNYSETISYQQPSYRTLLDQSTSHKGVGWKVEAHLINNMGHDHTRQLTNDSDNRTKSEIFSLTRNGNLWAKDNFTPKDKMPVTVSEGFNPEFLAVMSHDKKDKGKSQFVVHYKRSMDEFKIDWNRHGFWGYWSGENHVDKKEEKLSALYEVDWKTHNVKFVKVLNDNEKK

B1: 0×1 linker variant of Construct 11 (bispecific antibody)
heavy: EVQLVETGGGLVKPGGSLRLSCSASRFSFRDYYMTWIRQAPGKGPEWVSHISGSGSTIYYADSVRGRFTISRDNAKSSLYLQMDSLQADDTAVYYCARGGRATSYYWVHWGPGTLVTVSSASTKGPSVFPLAPSSKSTSGGTAALGCLVKDYFPEPVTVSWNSGALTSGVHTFPAVLQSSGLYSLSSVVTVPSSSLGTQTYICNVNHKPSNTKVDKKVEPKSCDKTHTCPPCPAPPVAGPDVFLFPPKPKDTLMISRTPEVTCVVVDVSHEDPEVKFNWYVDGVEVHNAKTKPREEQYNSTYRVVSVLTVLHQDWLNGKEYKCKVSNAALPAPIAKTISKAKGQPREPQVYTLPPSRDELTKNQVSLTCLVKGFYPSDIAVEWESNGQPENNYKTTPPVLDSDGSFFLYSKLTVDKSRWQQGNVFSCSVMHEALHNRFTQKSLSLSPGKMLPAPKNLVVSRVTEDSARLSWTAPDAAFDSFHIEYAEPWVWGEAIVLTVPGSERSYDLTGLKPGTEYVVFIGGVKGGHNSTPLSAIFTTGGGGSMLPAPKNLVVSRVTEDSARLSWTAPDAAFDSFWITYEEKFYRGEAIVLTVPGSERSYDLTGLKPGTEYKVWIVGVKGGQGSWPLSAIFTT
light: EIVLTQSPATLSLSPGERATLSCRASQSVSGYLGWYQQKPGQAPRLLIYGASSRATGIPDRFSGSGSGTDFTLTISRLEPEDFAVYYCQQYGSSPLTFGGGTKLEIKRTVAAPSVFIFPPSDEQLKSGTASVVCLLNNFYPREAKVQWKVDNALQSGNSQESVTEQDSKDSTYSLSSTLTLSKADYEKHKVYACEVTHQGLSSPVTKSFNRGEC
B2: 0×2 linker variant of Construct 11 (bispecific antibody)
heavy: EVQLVETGGGLVKPGGSLRLSCSASRFSFRDYYMTWIRQAPGKGPEWVSHISGSGSTIYYADSVRGRFTISRDNAKSSLYLQMDSLQADDTAVYYCARGGRATSYYWVHWGPGTLVTVSSASTKGPSVFPLAPSSKSTSGGTAALGCLVKDYFPEPVTVSWNSGALTSGVHTFPAVLQSSGLYSLSSVVTVPSSSLGTQTYICNVNHKPSNTKVDKKVEPKSCDKTHTCPPCPAPPVAGPDVFLFPPKPKDTLMISRTPEVTCVVVDVSHEDPEVKFNWYVDGVEVHNAKTKPREEQYNSTYRVVSVLTVLHQDWLNGKEYKCKVSNAALPAPIAKTISKAKGQPREPQVYTLPPSRDELTKNQVSLTCLVKGFYPSDIAVEWESNGQPENNYKTTPPVLDSDGSFFLYSKLTVDKSRWQQGNVFSCSVMHEALHNRFTQKSLSLSPGKMLPAPKNLVVSRVTEDSARLSWTAPDAAFDSFHIEYAEPWVWGEAIVLTVPGSERSYDLTGLKPGTEYVVFIGGVKGGHNSTPLSAIFTTGGGGSGGGGSMLPAPKNLVVSRVTEDSARLSWTAPDAAFDSFWITYEEKFYRGEAIVLTVPGSERSYDLTGLKPGTEYKVWIVGVKGGQGSWPLSAIFTT
light: EIVLTQSPATLSLSPGERATLSCRASQSVSGYLGWYQQKPGQAPRLLIYGASSRATGIPDRFSGSGSGTDFTLTISRLEPEDFAVYYCQQYGSSPLTFGGGTKLEIKRTVAAPSVFIFPPSDEQLKSGTASVVCLLNNFYPREAKVQWKVDNALQSGNSQESVTEQDSKDSTYSLSSTLTLSKADYEKHKVYACEVTHQGLSSPVTKSFNRGEC
B3: 0×3 linker variant of Construct 11 (bispecific antibody)
heavy: EVQLVETGGGLVKPGGSLRLSCSASRFSFRDYYMTWIRQAPGKGPEWVSHISGSGSTIYYADSVRGRFTISRDNAKSSLYLQMDSLQADDTAVYYCARGGRATSYYWVHWGPGTLVTVSSASTKGPSVFPLAPSSKSTSGGTAALGCLVKDYFPEPVTVSWNSGALTSGVHTFPAVLQSSGLYSLSSVVTVPSSSLGTQTYICNVNHKPSNTKVDKKVEPKSCDKTHTCPPCPAPPVAGPDVFLFPPKPKDTLMISRTPEVTCVVVDVSHEDPEVKFNWYVDGVEVHNAKTKPREEQYNSTYRVVSVLTVLHQDWLNGKEYKCKVSNAALPAPIAKTISKAKGQPREPQVYTLPPSRDELTKNQVSLTCLVKGFYPSDIAVEWESNGQPENNYKTTPPVLDSDGSFFLYSKLTVDKSRWQQGNVFSCSVMHEALHNRFTQKSLSLSPGKMLPAPKNLVVSRVTEDSARLSWTAPDAAFDSFHIEYAEPWVWGEAIVLTVPGSERSYDLTGLKPGTEYVVFIGGVKGGHNSTPLSAIFTTGGGGSGGGGSGGGGSMLPAPKNLVVSRVTEDSARLSWTAPDAAFDSFWITYEEKFYRGEAIVLTVPGSERSYDLTGLKPGTEYKVWIVGVKGGQGSWPLSAIFTT
light: EIVLTQSPATLSLSPGERATLSCRASQSVSGYLGWYQQKPGQAPRLLIYGASSRATGIPDRFSGSGSGTDFTLTISRLEPEDFAVYYCQQYGSSPLTFGGGTKLEIKRTVAAPSVFIFPPSDEQLKSGTASVVCLLNNFYPREAKVQWKVDNALQSGNSQESVTEQDSKDSTYSLSSTLTLSKADYEKHKVYACEVTHQGLSSPVTKSFNRGEC
B4: 0×4 linker variant of Construct 11 (bispecific antibody)
heavy: EVQLVETGGGLVKPGGSLRLSCSASRFSFRDYYMTWIRQAPGKGPEWVSHISGSGSTIYYADSVRGRFTISRDNAKSSLYLQMDSLQADDTAVYYCARGGRATSYYWVHWGPGTLVTVSSASTKGPSVFPLAPSSKSTSGGTAALGCLVKDYFPEPVTVSWNSGALTSGVHTFPAVLQSSGLYSLSSVVTVPSSSLGTQTYICNVNHKPSNTKVDKKVEPKSCDKTHTCPPCPAPPVAGPDVFLFPPKPKDTLMISRTPEVTCVVVDVSHEDPEVKFNWYVDGVEVHNAKTKPREEQYNSTYRVVSVLTVLHQDWLNGKEYKCKVSNAALPAPIAKTISKAKGQPREPQVYTLPPSRDELTKNQVSLTCLVKGFYPSDIAVEWESNGQPENNYKTTPPVLDSDGSFFLYSKLTVDKSRWQQGNVFSCSVMHEALHNRFTQKSLSLSPGKMLPAPKNLVVSRVTEDSARLSWTAPDAAFDSFHIEYAEPWVWGEAIVLTVPGSERSYDLTGLKPGTEYVVFIGGVKGGHNSTPLSAIFTTGGGGSGGGGSGGGGSGGGGSMLPAPKNLVVSRVTEDSARLSWTAPDAAFDSFWITYEEKFYRGEAIVLTVPGSERSYDLTGLKPGTEYKVWIVGVKGGQGSWPLSAIFTT
light: EIVLTQSPATLSLSPGERATLSCRASQSVSGYLGWYQQKPGQAPRLLIYGASSRATGIPDRFSGSGSGTDFTLTISRLEPEDFAVYYCQQYGSSPLTFGGGTKLEIKRTVAAPSVFIFPPSDEQLKSGTASVVCLLNNFYPREAKVQWKVDNALQSGNSQESVTEQDSKDSTYSLSSTLTLSKADYEKHKVYACEVTHQGLSSPVTKSFNRGEC
B5: 1×4 linker variant of Construct 11 (bispecific antibody)
heavy: EVQLVETGGGLVKPGGSLRLSCSASRFSFRDYYMTWIRQAPGKGPEWVSHISGSGSTIYYADSVRGRFTISRDNAKSSLYLQMDSLQADDTAVYYCARGGRATSYYWVHWGPGTLVTVSSASTKGPSVFPLAPSSKSTSGGTAALGCLVKDYFPEPVTVSWNSGALTSGVHTFPAVLQSSGLYSLSSVVTVPSSSLGTQTYICNVNHKPSNTKVDKKVEPKSCDKTHTCPPCPAPPVAGPDVFLFPPKPKDTLMISRTPEVTCVVVDVSHEDPEVKFNWYVDGVEVHNAKTKPREEQYNSTYRVVSVLTVLHQDWLNGKEYKCKVSNAALPAPIAKTISKAKGQPREPQVYTLPPSRDELTKNQVSLTCLVKGFYPSDIAVEWESNGQPENNYKTTPPVLDSDGSFFLYSKLTVDKSRWQQGNVFSCSVMHEALHNRFTQKSLSLSPGKGGGGSMLPAPKNLVVSRVTEDSARLSWTAPDAAFDSFHIEYAEPWVWGEAIVLTVPGSERSYDLTGLKPGTEYVVFIGGVKGGHNSTPLSAIFTTGGGGSGGGGSGGGGSGGGGSMLPAPKNLVVSRVTEDSARLSWTAPDAAFDSFWITYEEKFYRGEAIVLTVPGSERSYDLTGLKPGTEYKVWIVGVKGGQGSWPLSAIFTT
light: EIVLTQSPATLSLSPGERATLSCRASQSVSGYLGWYQQKPGQAPRLLIYGASSRATGIPDRFSGSGSGTDFTLTISRLEPEDFAVYYCQQYGSSPLTFGGGTKLEIKRTVAAPSVFIFPPSDEQLKSGTASVVCLLNNFYPREAKVQWKVDNALQSGNSQESVTEQDSKDSTYSLSSTLTLSKADYEKHKVYACEVTHQGLSSPVTKSFNRGEC
B6: 3×2 linker variant of Construct 11 (bispecific antibody)
heavy: EVQLVETGGGLVKPGGSLRLSCSASRFSFRDYYMTWIRQAPGKGPEWVSHISGSGSTIYYADSVRGRFTISRDNAKSSLYLQMDSLQADDTAVYYCARGGRATSYYWVHWGPGTLVTVSSASTKGPSVFPLAPSSKSTSGGTAALGCLVKDYFPEPVTVSWNSGALTSGVHTFPAVLQSSGLYSLSSVVTVPSSSLGTQTYICNVNHKPSNTKVDKKVEPKSCDKTHTCPPCPAPPVAGPDVFLFPPKPKDTLMISRTPEVTCVVVDVSHEDPEVKFNWYVDGVEVHNAKTKPREEQYNSTYRVVSVLTVLHQDWLNGKEYKCKVSNAALPAPIAKTISKAKGQPREPQVYTLPPSRDELTKNQVSLTCLVKGFYPSDIAVEWESNGQPENNYKTTPPVLDSDGSFFLYSKLTVDKSRWQQGNVFSCSVMHEALHNRFTQKSLSLSPGKGGGGSGGGGSGGGGSMLPAPKNLVVSRVTEDSARLSWTAPDAAFDSFHIEYAEPWVWGEAIVLTVPGSERSYDLTGLKPGTEYVVFIGGVKGGHNSTPLSAIFTTGGGGSGGGGSMLPAPKNLVVSRVTEDSARLSWTAPDAAFDSFWITYEEKFYRGEAIVLTVPGSERSYDLTGLKPGTEYKVWIVGVKGGQGSWPLSAIFTT
light: EIVLTQSPATLSLSPGERATLSCRASQSVSGYLGWYQQKPGQAPRLLIYGASSRATGIPDRFSGSGSGTDFTLTISRLEPEDFAVYYCQQYGSSPLTFGGGTKLEIKRTVAAPSVFIFPPSDEQLKSGTASVVCLLNNFYPREAKVQWKVDNALQSGNSQESVTEQDSKDSTYSLSSTLTLSKADYEKHKVYACEVTHQGLSSPVTKSFNRGEC

In this assay the target is T1, LukAB toxoid variant (LukA E323A), …. Briefly: ELISA, biotinylated toxin on streptavidin plate. In general terms: In an ELISA, binding on a coated surface is turned into a signal by an enzyme label.
As to B1, the binding result is “binds”.

Turning to B2, the binding result was “binds”.

On to B3, for which the binding result is “binds”.

Consider B4, for which the binding result is listed as “binds”.

On to B5, for which the binding result was “binds”.

Take B6: the binding result is “binds”.
